From patent US20250041325A1 come the findings set out here.

This test addresses CXCR4 receptor on the surface of RIL-175 murine HCC cells (murine (endogenous on murine RIL-175 HCC cells)) (UniProt P70658). The experiment in a line: cell-based or functional assay.
UniProt P70658, sequence (P70658 whole entry): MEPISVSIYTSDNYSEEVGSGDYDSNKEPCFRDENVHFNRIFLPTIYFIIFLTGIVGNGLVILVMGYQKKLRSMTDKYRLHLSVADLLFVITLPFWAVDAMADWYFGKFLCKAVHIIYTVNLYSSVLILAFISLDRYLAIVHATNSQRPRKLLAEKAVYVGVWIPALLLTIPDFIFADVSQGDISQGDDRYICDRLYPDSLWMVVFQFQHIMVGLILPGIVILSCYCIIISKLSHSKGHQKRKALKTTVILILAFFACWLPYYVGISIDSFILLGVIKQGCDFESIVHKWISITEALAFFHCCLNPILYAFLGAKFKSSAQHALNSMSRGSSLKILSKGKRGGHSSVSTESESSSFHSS

As to “CTCE-9908 peptide conjugated to DSPE-PEG and displayed on polymer-lipid hybrid mRNA nanoparticles (DSPE-PEG-CTCE; CTCE-mRNA NPs)”, the cellular uptake in RIL-175 cells (flow cytometry of EGFP), 5% CTCE-EGFP NPs versus 5% SCP-EGFP NPs (scrambled peptide, SEQ ID NO: 2) is over 15 fold and the mean fluorescence intensity of EGFP in transfected RIL-175 cells (flow cytometry), CTCE-EGFP NPs versus SCP-EGFP NPs worked out at 4.5 fold.
